From the supplement of paper PMC7125110 come the findings set out here.

± gives the standard error. Variants at the floor of the assay were thinned out.

First the molecules themselves.
B1: glmS ribozyme (parent)
chain: AUAAAAGCGCCAGAACUACAGAAAUGUAGUUGACGAGGAGGAGGUUUAUCGAAUUUUCGGCGGAUGCCUCCAAA

What all share (conditions): with glucosamine-6-phosphate
Variants of B1 are the subject of series [1]. Put plainly: self-cleavage kobs at 40 uM GlcN6P; higher = faster cleavage; RNA array. In outline:
(§1)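 Barcoded ribozyme variants were transcribed in situ on sequenced MiSeq chips by E. coli RNA polymerase. At 37 °C, a hybridised Cy3 probe tracked them while glucosamine-6-phosphate (40 μM to 10 mM) in HEPES/KCl/Mg(OAc)2 buffer flowed in and tiles were imaged over ~14 h. Per-tile medians of signals normalised to baseline and to non-cleaving reference variants were fit to one- or two-exponential decays, giving kobs. kcat and KM came from weighted Michaelis–Menten fits across concentrations.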

Series [2] covers variants of B1. Put plainly: self-cleavage kobs at 160 uM GlcN6P; higher = faster cleavage; RNA array. A digest of the protocol:
as §1

Variants of B1 are the subject of series [3]. Put plainly: self-cleavage kobs at 640 uM GlcN6P; higher = faster cleavage; RNA array. A digest of the protocol: as §1
In series [4] the parent is B1. Put plainly: self-cleavage kobs at 2500 uM GlcN6P; higher = faster cleavage; RNA array. In outline: as §1
Variants of B1 are the subject of series [5]. Put plainly: self-cleavage kobs at 10000 uM GlcN6P; higher = faster cleavage; RNA array. A digest of the protocol: as §1

AUAAAAGAGCCAGAACUACAGAAAUGUAGUUGACGUGGAGGAGGUUUAUCGAAUUUUCGGCGGAUGCCUCCAAA [C8A A36U]: the “self-cleavage kobs at 40 uM GlcN6P” value in the series with glucosamine-6-phosphate [1] is < 1e-05 s⁻¹. Besides, the “self-cleavage kobs at 160 uM GlcN6P” value with glucosamine-6-phosphate [2] is < 1e-05 s⁻¹. For the same variant, the “self-cleavage kobs at 640 uM GlcN6P” value in the series with glucosamine-6-phosphate [3] was < 1e-05 s⁻¹. In the series with glucosamine-6-phosphate [4], the “self-cleavage kobs at 2500 uM GlcN6P” value is < 1e-05 s⁻¹. Also, in the series with glucosamine-6-phosphate [5], the “self-cleavage kobs at 10000 uM GlcN6P” value is < 1e-05 s⁻¹.

AUAAAAGCGCCAGAACUACAGAAAUGUAGUUGACAAGGAGGAGGUUUAUAAAAUUUUCGGCGGAUGCCUCCAAA [G35A C50A G51A]: the “self-cleavage kobs at 40 uM GlcN6P” value with glucosamine-6-phosphate [1] is < 1e-05 s⁻¹. Further, the “self-cleavage kobs at 640 uM GlcN6P” value with glucosamine-6-phosphate [3] is < 1e-05 s⁻¹. Also, the “self-cleavage kobs at 2500 uM GlcN6P” value with glucosamine-6-phosphate [4] is < 1e-05 s⁻¹.

Regarding AUAAAAGCGCCAGAACUACAGAAAUGUAGUGGACGAGGAGGAGGUUUAUCGAAGUUUCGGCGGAUGGAUGCAAA [U31G U54G C67G C68A C70G], in the series with glucosamine-6-phosphate [1], the “self-cleavage kobs at 40 uM GlcN6P” value stood at 4.46e-05 ± 2.2e-05 s⁻¹. Further, the “self-cleavage kobs at 2500 uM GlcN6P” value with glucosamine-6-phosphate [4] turned out to be 0.000243 ± 6.9e-05 s⁻¹.

As for AUAAAAGCGCCUGAAUUACAGAAAUGUAGUUGACGAGGAGGAGGUUUAUCGAAUUUUCGGCAGAUGCCUCCAAA [A12U C16U G62A], in the series with glucosamine-6-phosphate [1], the “self-cleavage kobs at 40 uM GlcN6P” value is < 1e-05 s⁻¹.

In the case of AUAAAAGCGCCAGAACUACAGAAAUGUAAUUGACGUGGAGGAGGUUUAUCGAAUUUUCGGCGGAUGCCUCCAAA [G29A A36U], in the series with glucosamine-6-phosphate [1], the “self-cleavage kobs at 40 uM GlcN6P” value was < 1e-05 s⁻¹. Also, the “self-cleavage kobs at 640 uM GlcN6P” value with glucosamine-6-phosphate [3] was < 1e-05 s⁻¹. Moreover, the “self-cleavage kobs at 2500 uM GlcN6P” value in the series with glucosamine-6-phosphate [4] is < 1e-05 s⁻¹.

In the case of AUAAAAGCGCCAGAACUACAGAAAUGUAGUUGACGAGGAGGAGGUUUACCGAAUUUUUGGCGGAUGCCUCCAAA [U49C C58U], the “self-cleavage kobs at 40 uM GlcN6P” value with glucosamine-6-phosphate [1] was < 1e-05 s⁻¹. Besides, the “self-cleavage kobs at 160 uM GlcN6P” value with glucosamine-6-phosphate [2] was < 1e-05 s⁻¹. The “self-cleavage kobs at 640 uM GlcN6P” value in the series with glucosamine-6-phosphate [3] is < 1e-05 s⁻¹. In addition, in the series with glucosamine-6-phosphate [4], the “self-cleavage kobs at 2500 uM GlcN6P” value is < 1e-05 s⁻¹. Also, the “self-cleavage kobs at 10000 uM GlcN6P” value with glucosamine-6-phosphate [5] was < 1e-05 s⁻¹.

Take AUAAAAGCGCCAGAACUACAGAAAUGUAGUCGACGAGGAGGAGGAUUAUCGAAUUUUCGACGGAUGACUCCAAA [U31C U45A G60A C67A]: the “self-cleavage kobs at 40 uM GlcN6P” value in the series with glucosamine-6-phosphate [1] was < 1e-05 s⁻¹. In the series with glucosamine-6-phosphate [2], the “self-cleavage kobs at 160 uM GlcN6P” value was < 1e-05 s⁻¹.

For AUAAAAGCGCCAGAACUACAGAAAUGUAGUUUAAGAGGAGGAGGUUUUUCGAAUUUUCGGCGGAUGCCUACAAA [G32U C34A A48U C70A], the “self-cleavage kobs at 40 uM GlcN6P” value with glucosamine-6-phosphate [1] is < 1e-05 s⁻¹.

As for AUAAAACCGCCAGAACUACAGAAAUGUAGUUGACGAGGAGGAGGUUUAUCGAAUUGUCGGCGGAUGCCUCCAAA [G7C U56G], the “self-cleavage kobs at 40 uM GlcN6P” value in the series with glucosamine-6-phosphate [1] is < 1e-05 s⁻¹. Also, the “self-cleavage kobs at 160 uM GlcN6P” value with glucosamine-6-phosphate [2] was < 1e-05 s⁻¹. In addition, in the series with glucosamine-6-phosphate [3], the “self-cleavage kobs at 640 uM GlcN6P” value was < 1e-05 s⁻¹. In the series with glucosamine-6-phosphate [4], the “self-cleavage kobs at 2500 uM GlcN6P” value was < 1e-05 s⁻¹. In the series with glucosamine-6-phosphate [5], the “self-cleavage kobs at 10000 uM GlcN6P” value is < 1e-05 s⁻¹.

Consider AUAAACGCGCCAGAACUACAGAAAUGUAGUUGACGAGGAGGAGGUUUAUCGAAUUUUUGGCGGAUGCCUCCAAA [A6C C58U], for which the “self-cleavage kobs at 40 uM GlcN6P” value in the series with glucosamine-6-phosphate [1] is < 1e-05 s⁻¹. In addition, the “self-cleavage kobs at 160 uM GlcN6P” value with glucosamine-6-phosphate [2] was < 1e-05 s⁻¹. Besides, the “self-cleavage kobs at 10000 uM GlcN6P” value in the series with glucosamine-6-phosphate [5] was < 1e-05 s⁻¹.

With AUAAAAACGCCAGAACUACAGAAAUGUAGUUAACGAGGAGGAGGUUUAUCGAAUUUUAGGCGGAUGCCUCCAAA [G7A G32A C58A], in the series with glucosamine-6-phosphate [1], the “self-cleavage kobs at 40 uM GlcN6P” value was < 1e-05 s⁻¹. In addition, the “self-cleavage kobs at 10000 uM GlcN6P” value in the series with glucosamine-6-phosphate [5] is < 1e-05 s⁻¹.

As for AUAAAUGCGCCUGAACUACAGAAAUGUAGUUUACGAGGAGGAGGUUUAUCGAAUUUUCGUCGGAUGCCUCCAAA [A6U A12U G32U G60U], in the series with glucosamine-6-phosphate [1], the “self-cleavage kobs at 40 uM GlcN6P” value is < 1e-05 s⁻¹.

For the variant AUAAAAGCGCCAGGACUACAGAAAUGUAGUUGACGAGGAGGAGUUUUAUCGAAUUUUCGGCGGUUGCCUCCAAA [A14G G44U A64U], in the series with glucosamine-6-phosphate [1], the “self-cleavage kobs at 40 uM GlcN6P” value is < 1e-05 s⁻¹. Moreover, the “self-cleavage kobs at 640 uM GlcN6P” value with glucosamine-6-phosphate [3] was < 1e-05 s⁻¹. Further, in the series with glucosamine-6-phosphate [4], the “self-cleavage kobs at 2500 uM GlcN6P” value is < 1e-05 s⁻¹.
